The values that follow come from paper PMC10350107, “Mechanism of DNA unwinding by hexameric MCM8–9 in complex with HROB” (Research Square, 2023).

B1: HROB-L405D (natural protein, human, UniProt Q8N3J3-4 1-646, looked up)
chain: MACSLQKLFAVEEEFEDEDFLSAVEDAENRFTGSLPVNAGRLRPVSSRPQETVQAQSSRLLLLHPTAPSEALGLPDLDLCLPASSTPSADSRPSCIGAAPLRPVSTSSSWIGNQRRVTVTEVLREPARPQSSALHPLLTFESQQQQVGGFEGPEQDEFDKVLASMELEEPGMELECGVSSEAIPILPAQQREGSVLAKKARVVDLSGSCQKGPVPAIHKAGIMSAQDESLDPVIQCRTPRPPLRPGAVGHLPVPTALTVPTQQLHWEVCPQRSPVQALQPLQAARGTIQSSPQNRFPCQPFQSPSSWLSGKAHLPRPRTPNSSCSTPSRTSSGLFPRIPLQPQAPVSSIGSPVGTPKGPQGALQTPIVTNHLVQLVTAASRTPQQPTHPSTRAKTRRFPGPAGIDPHQQSGRSLEDIMVSAPQTPTHGALAKFQTEIVASSQASVEEDFGRGPWLTMKSTLGLDERDPSCFLCTYSIVMVLRKAALKQLPRNKVPNMAVMIKSLTRSTMDASVVFKDPTGEMQGTVHRLLLETCQNELKPGSVLLLKQIGVFSPSLRNHYLNVTPNNLVHIYSPDSGDGSFLKPSQPFPKDSGSFQHDVAAKPEEGFRTAQNLEAEASPEEELPEADDLDGLLSELPEDFFCGTSS
notes: human HROB as in m1 (closest to isoform 4, lacks Q-484, T126P) with L405D in the disordered region that contacts MCM8
B2: human MCM8–9 complex, wild type (FLAG-MCM8 with MBP-MCM9, co-expressed) (complex)
chain 1: MNGEYRGRGFGRGRFQSWKRGRGGGNFSGKWREREHRPDLSKTTGKRTSEQTPQFLLSTKTPQSMQSTLDRFIPYKGWKLYFSEVYSDSSPLIEKIQAFEKFFTRHIDLYDKDEIERKGSILVDFKELTEGGEVTNLIPDIATELRDAPEKTLACMGLAIHQVLTKDLERHAAELQAQEGLSNDGETMVNVPHIHARVYNYEPLTQLKNVRANYYGKYIALRGTVVRVSNIKPLCTKMAFLCAACGEIQSFPLPDGKYSLPTKCPVPVCRGRSFTALRSSPLTVTMDWQSIKIQELMSDDQREAGRIPRTIECELVHDLVDSCVPGDTVTITGIVKVSNAEEGSRNKNDKCMFLLYIEANSISNSKGQKTKSSEDGCKHGMLMEFSLKDLYAIQEIQAEENLFKLIVNSLCPVIFGHELVKAGLALALFGGSQKYADDKNRIPIRGDPHILVVGDPGLGKSQMLQAACNVAPRGVYVCGNTTTTSGLTVTLSKDSSSGDFALEAGALVLGDQGICGIDEFDKMGNQHQALLEAMEQQSISLAKAGVVCSLPARTSIIAAANPVGGHYNKAKTVSENLKMGSALLSRFDLVFILLDTPNEHHDHLLSEHVIAIRAGKQRTISSATVARMNSQDSNTSVLEVVSEKPLSERLKVVPGETIDPIPHQLLRKYIGYARQYVYPRLSTEAARVLQDFYLELRKQSQRLNSSPITTRQLESLIRLTEARARLELREEATKEDAEDIVEIMKYSMLGTYSDEFGNLDFERSQHGSGMSNRSTAKRFISALNNVAERTYNNIFQFHQLRQIAKELNIQVADFENFIGSLNDQGYLLKKGPKVYQLQTM
chain 2: not shown
notes: human MCM8; human MCM9; Written as the heterodimer (theoretical 266 kDa with tags; hexamer 798 kDa); in solution a mix of dimers, tetramers and hexamers; also called MCM8-MCM9; FLAG-MCM8-MBP-MCM9 heterodimer complex; source: Sf9 insect cells, co-expressed; hexamer-rich pool with a Superose 6 step) or captured from lysate on amylose resin and washed; not shown: FLAG, N-terminal, kept; MBP, …

In series [1] the target is B2. Nature of the series: pull-down; MBP-MCM9/FLAG-MCM8 from Sf9 lysate immobilised on amylose resin and washed (300 mM NaCl, 0.1% NP40); incubated with 1 μg purified HROB wild type or mutant in 50 mM Tris-HCl pH 7.5, 100 mM NaCl, 3 mM EDTA, BSA, 1 h at 4 °C; maltose elution, western blot. The following applies: both partners purified.
Series [2] deals with the molecule itself. In words: negative staining transmission electron microscopy; human MCM8–9 at 220 nM; ring-like particles, heterodimers to hexameric rings.

In the case of B1, the binding result in series [1] is on record as “binds”. B2: in series [2], the binding result is on record as “binds”.
